{
  "source": "paper PMC10110952",
  "key": {"[1]": {"molecular_target": "streptokinase (Streptococcus pyogenes) (UniProt P10520)", "sequence (P10520 27-440)": "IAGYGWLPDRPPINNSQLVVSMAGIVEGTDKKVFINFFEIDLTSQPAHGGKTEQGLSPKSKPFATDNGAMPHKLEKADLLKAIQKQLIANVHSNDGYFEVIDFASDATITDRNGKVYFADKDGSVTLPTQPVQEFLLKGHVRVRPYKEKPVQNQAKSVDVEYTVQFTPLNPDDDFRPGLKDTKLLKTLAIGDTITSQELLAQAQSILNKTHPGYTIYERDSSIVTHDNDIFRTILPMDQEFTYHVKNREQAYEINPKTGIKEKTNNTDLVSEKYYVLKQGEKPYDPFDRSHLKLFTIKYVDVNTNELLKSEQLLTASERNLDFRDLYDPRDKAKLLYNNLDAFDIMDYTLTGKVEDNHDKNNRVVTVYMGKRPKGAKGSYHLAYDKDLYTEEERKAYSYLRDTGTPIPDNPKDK", "test": "binding saturation", "settings": "cited from earlier work"}, "[2]": {"molecular_target": "PAM, plasminogen-binding group A Streptococcus (GAS) M-protein (S. pyogenes) (UniProt P49054)", "sequence (P49054 30-384)": "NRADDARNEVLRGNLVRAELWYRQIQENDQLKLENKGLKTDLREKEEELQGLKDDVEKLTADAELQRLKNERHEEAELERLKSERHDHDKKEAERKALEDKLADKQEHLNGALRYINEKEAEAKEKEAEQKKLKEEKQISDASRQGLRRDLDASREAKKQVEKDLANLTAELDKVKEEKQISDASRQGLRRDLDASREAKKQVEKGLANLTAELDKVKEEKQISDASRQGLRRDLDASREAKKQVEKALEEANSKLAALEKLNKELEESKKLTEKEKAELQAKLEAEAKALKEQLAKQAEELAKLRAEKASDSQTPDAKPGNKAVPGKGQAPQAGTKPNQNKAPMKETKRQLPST", "test": "SPR; PAM amine-coupled to a CM-5 chip (250 RU); hPg variants injected at 0.175-20 nM (up to 800 nM hPg [D219N]), multicycle kinetics, 180 s association, 300 s dissociation; HBS-EP+ (10 mM Na-Hepes/150 mM NaCl, 3 mM EDTA/0.05% polysorbate-20, pH 7.4), 25°C, Biacore X100; 1:1 Langmuir model"}, "[3]": {"molecular_target": "PAM, plasminogen-binding group A Streptococcus (GAS) M-protein (S. pyogenes) (UniProt P49054)"}, "hPg [K^708A] (human)": {"molecular_target": "hPg [K^708A] (human)", "test": "SPR; each hPg variant amine-coupled to a CM-5 chip (~1200 RU); SK injected at 0.625-100 nM, multicycle kinetics, 90 s association, 120 s dissociation; HBS-EP+/50 μM NPGB, 25°C, Biacore X100; 1:1 Langmuir model"}, "hPg [D^219N] (human)": {"molecular_target": "hPg [D^219N] (human)", "test": "SPR; each hPg variant amine-coupled to a CM-5 chip (~1200 RU); SK injected at 0.625-100 nM, multicycle kinetics, 90 s association, 120 s dissociation; HBS-EP+/50 μM NPGB, 25°C, Biacore X100; 1:1 Langmuir model"}, "hPg [D^139N] (human)": {"molecular_target": "hPg [D^139N] (human)", "test": "SPR; each hPg variant amine-coupled to a CM-5 chip (~1200 RU); SK injected at 0.625-100 nM, multicycle kinetics, 90 s association, 120 s dissociation; HBS-EP+/50 μM NPGB, 25°C, Biacore X100; 1:1 Langmuir model"}, "[4]": {"molecular_target": "wild-type (WT) Glu^1-hPg (human plasminogen) (human)", "test": "SPR; each hPg variant amine-coupled to a CM-5 chip (~1200 RU); SK injected at 0.625-100 nM, multicycle kinetics, 90 s association, 120 s dissociation; HBS-EP+/50 μM NPGB, 25°C, Biacore X100; 1:1 Langmuir model"}, "[5]": {"molecular_target": "hPg [D^139,413,518N] (human)", "test": "SPR; each hPg variant amine-coupled to a CM-5 chip (~1200 RU); SK injected at 0.625-100 nM, multicycle kinetics, 90 s association, 120 s dissociation; HBS-EP+/50 μM NPGB, 25°C, Biacore X100; 1:1 Langmuir model"}, "hPg [D^413N] (human)": {"molecular_target": "hPg [D^413N] (human)", "test": "SPR; each hPg variant amine-coupled to a CM-5 chip (~1200 RU); SK injected at 0.625-100 nM, multicycle kinetics, 90 s association, 120 s dissociation; HBS-EP+/50 μM NPGB, 25°C, Biacore X100; 1:1 Langmuir model"}, "hPg [D^518N] (human)": {"molecular_target": "hPg [D^518N] (human)", "test": "SPR; each hPg variant amine-coupled to a CM-5 chip (~1200 RU); SK injected at 0.625-100 nM, multicycle kinetics, 90 s association, 120 s dissociation; HBS-EP+/50 μM NPGB, 25°C, Biacore X100; 1:1 Langmuir model"}},
  "data": [
    {"substance": "Glu1-plasminogen (from UniProt P00747)", "values": [
      {"measurement": "Kd", "setting": "[1]", "value": 0.5, "unit": "nM"}
    ]},
    {"substance": "hPg [D^139,413,518N] (natural protein)", "values": [
      {"measurement": "Kd", "setting": "[2]", "value": 0.7, "unit": "nM"},
      {"measurement": "koff", "setting": "[2]", "value": 0.0017, "unit": "s⁻¹"},
      {"measurement": "kon", "setting": "[2]", "value": "2.51e+06", "unit": "M⁻¹ s⁻¹"}
    ]},
    {"substance": "hPg [D^139N] (natural protein)", "values": [
      {"measurement": "rate of SK-mediated activation of hPg to hPm (S2251 hydrolysis), 250 nM PAM against 0 nM PAM", "setting": "[3]", "value": 4, "unit": "fold"},
      {"measurement": "Kd", "setting": "[2]", "value": 4, "unit": "nM"},
      {"measurement": "koff", "setting": "[2]", "value": 0.0016, "unit": "s⁻¹"},
      {"measurement": "kon", "setting": "[2]", "value": 410000, "unit": "M⁻¹ s⁻¹"}
    ]},
    {"substance": "hPg [D^413N] (natural protein)", "values": [
      {"measurement": "Kd", "setting": "[2]", "value": 0.7, "unit": "nM"},
      {"measurement": "koff", "setting": "[2]", "value": 0.00094, "unit": "s⁻¹"},
      {"measurement": "kon", "setting": "[2]", "value": "1.34e+06", "unit": "M⁻¹ s⁻¹"}
    ]},
    {"substance": "hPg [D^518N] (natural protein)", "values": [
      {"measurement": "Kd", "setting": "[2]", "value": 6.7, "unit": "nM"},
      {"measurement": "koff", "setting": "[2]", "value": 0.0024, "unit": "s⁻¹"},
      {"measurement": "kon", "setting": "[2]", "value": 360000, "unit": "M⁻¹ s⁻¹"}
    ]},
    {"substance": "hPg [K^708A] (natural protein)", "values": [
      {"measurement": "Kd", "setting": "[2]", "value": 1.2, "unit": "nM"},
      {"measurement": "koff", "setting": "[2]", "value": 0.0012, "unit": "s⁻¹"},
      {"measurement": "kon", "setting": "[2]", "value": 970000, "unit": "M⁻¹ s⁻¹"}
    ]},
    {"substance": "mini-plasminogen mini-hPg (lacking K1-K4) (from UniProt P00747)", "values": [
      {"measurement": "Kd", "setting": "[1]", "value": 0.5, "unit": "nM"}
    ]},
    {"substance": "streptokinase (SK) (natural protein)", "values": [
      {"measurement": "Kd", "setting": "hPg [K^708A] (human)", "value": 0.21, "unit": "nM"},
      {"measurement": "koff", "setting": "hPg [K^708A] (human)", "value": 0.000282, "unit": "s⁻¹"},
      {"measurement": "kon", "setting": "hPg [K^708A] (human)", "value": "1.36e+06", "unit": "M⁻¹ s⁻¹"},
      {"measurement": "Kd", "setting": "hPg [D^219N] (human)", "value": 0.3, "unit": "nM"},
      {"measurement": "koff", "setting": "hPg [D^219N] (human)", "value": 0.000466, "unit": "s⁻¹"},
      {"measurement": "kon", "setting": "hPg [D^219N] (human)", "value": "1.55e+06", "unit": "M⁻¹ s⁻¹"},
      {"measurement": "Kd", "setting": "hPg [D^139N] (human)", "value": 0.28, "unit": "nM"},
      {"measurement": "koff", "setting": "hPg [D^139N] (human)", "value": 0.000302, "unit": "s⁻¹"},
      {"measurement": "kon", "setting": "hPg [D^139N] (human)", "value": "1.13e+06", "unit": "M⁻¹ s⁻¹"},
      {"measurement": "Kd", "setting": "[4]", "value": 0.29, "unit": "nM"},
      {"measurement": "koff", "setting": "[4]", "value": 0.000405, "unit": "s⁻¹"},
      {"measurement": "kon", "setting": "[4]", "value": "1.39e+06", "unit": "M⁻¹ s⁻¹"},
      {"measurement": "Kd", "setting": "[5]", "value": 2.1, "unit": "nM"},
      {"measurement": "koff", "setting": "[5]", "value": 0.000449, "unit": "s⁻¹"},
      {"measurement": "kon", "setting": "[5]", "value": 206000, "unit": "M⁻¹ s⁻¹"},
      {"measurement": "Kd", "setting": "hPg [D^413N] (human)", "value": 0.26, "unit": "nM"},
      {"measurement": "koff", "setting": "hPg [D^413N] (human)", "value": 0.000302, "unit": "s⁻¹"},
      {"measurement": "kon", "setting": "hPg [D^413N] (human)", "value": "1.22e+06", "unit": "M⁻¹ s⁻¹"},
      {"measurement": "Kd", "setting": "hPg [D^518N] (human)", "value": 0.27, "unit": "nM"},
      {"measurement": "koff", "setting": "hPg [D^518N] (human)", "value": 0.00034, "unit": "s⁻¹"},
      {"measurement": "kon", "setting": "hPg [D^518N] (human)", "value": "1.29e+06", "unit": "M⁻¹ s⁻¹"}
    ]},
    {"substance": "wild-type (WT) Glu^1-hPg (human plasminogen) (natural protein)", "values": [
      {"measurement": "rate of SK-mediated activation of hPg to hPm (S2251 hydrolysis), 250 nM PAM against 0 nM PAM", "setting": "[3]", "value": 4, "unit": "fold"},
      {"measurement": "Kd", "setting": "[2]", "value": 5.4, "unit": "nM"},
      {"measurement": "koff", "setting": "[2]", "value": 0.0013, "unit": "s⁻¹"},
      {"measurement": "kon", "setting": "[2]", "value": 240000, "unit": "M⁻¹ s⁻¹"}
    ]}
  ]
}
